For four molecules, Km and Vmax results are on record in article PMC7020209 (Plants, 2020).

Read-outs that look alike come from different tables or passages of the source.

What all share (conditions): co-substrate O2, 30 °C
The test system of one data set is N3-GOX. Put plainly: O2 consumption, Hansatech oxygen electrode, nonlinear Michaelis-Menten fit. It counts as biochemical, synthetic construct. An excerpt: O2 consumption, Hansatech oxygen electrode, nonlinear Michaelis-Menten fit on N3-GOX
Substrate in data set [1]: O=C(O)CO
As to the kind of experiment: purified protein.

Substrate in data set [2]: C[C@H](O)C(=O)O
Put plainly: purified protein.

In the case of `O=C(O)CO` [glycolate], the Km in the data set with N3-GOX (read-out: Glycolate / Km) is 11.8 ± 0.61 mM.
In the case of `C[C@H](O)C(=O)O` [L-lactate], in the data set with N3-GOX (read-out: L-Lactate / Km), the Km was determined as 13.7 ± 1.93 mM.

B1: Cp-GOXc (Cyanophora paradoxa) (protein)
chain: MQPLSAQALAQYRAAAPMDPVNVMEYQMVAKEKLPKMVYDYYASGADDQWTLQEARSAFERITFRPRVLVDVSVQDMSTTILGQKVAFPICVAPTAMQCMATGQGEKATSRAVASMNTLMTLSSWSTTPLEEVAKAAPHGARWFQLYVYKDRACTERLVRRAQAAGYKALCLTVDTPRLGRRENDVKNRFHLPDGLTMGNFLDLVQAEMPTDQKDSGLAAYVASLIDPTLNWKDVEWLKTITNLPIVVKGVLTAEDALMAVKHGCAGIVVSNHGARQLDYSPATIDVLEEVVNAVRGYPIEVYLDGGVRRGTDALKALALGARAVFVGRPVVWGLAAGGEEGVRKVLTMLRDEFKLGLALLGCQSLKDINRSMVVTPADRAKTAVRARL
One may read the Vmax as the top rate of the reaction or transport when substrate is in excess. As to B1, the Km in the data set “purified protein [1]” is listed as 0.38 ± 0.05 mM; in the data set “purified protein [2]” it was 9.27 ± 1.44 mM. Moreover, the Vmax came to 8.98 µmol/min/mg in the data set “purified protein [1]” and 6.94 µmol/min/mg in “purified protein [2]”.

B2: Sp-GOX (Spirogyra pratensis) (protein)
chain: MSSEVVNVTEFQAIAKQKLPKQTYDYYASGAEDEWSLRENRNAFERITFRPRILIDVSKIDLTTSVLGYRLSMPIMVAPTAMQKMAHPDGELATARAATSMNTAMTLSSWATSSVEEVSSTGPGLRFFQLYVYKNRDVVLQLVRRAEKAGFKAIALTVDTPRLGRREADIRNKFVLPPGLTLKNFEGLDLGKMDQTEDSGLASYVAGQIDRSLSWKDVKWLQSVTSMPILVKGVITGEDAKIAVECGASGIIVSNHGARQLDYVSSTINALEEVVKATAGRIPVFLDGGVRRGTDVLKALALGAKGVFVGRPVVFALASDGEAGVKKCLQMLRDEFELAMALAGCTKISDINRSLVQTEGDRIRMAARL
For the molecule B2, the Km in the data set “purified protein [1]” came out at 0.94 ± 0.12 mM; in “purified protein [2]”, 15.52 ± 4.55 mM. Also, the Vmax in the data set “purified protein [1]” was determined as 28.1 µmol/min/mg; in the data set “purified protein [2]”, 24.2 µmol/min/mg.
